Test results from US20220380444A1 (UNIVERSITY COLLEGE CARDIFF CONSULTANTS, published 2022).

Legend:
[1] = target: T1, human complement protein C7 (human, UniProt P10643 23-843); assay: SPR (Biacore); antibody captured on mouse IgG capture kit (CM5 chip), C7 flowed over
T1 construct: Purified in house, or present in human serum in the western blots; also called human C7; Hu C7
Description: (§1) Dissociation was then measured for a further 600 seconds. The surface was regenerated between each cycle.

[2] = target: T1, human complement protein C7; assay: direct ELISA, C7 immobilised on the well, antibody titrated
Description: Wells were blocked with bovine serum albumin (BSA), washed, then incubated (1 hour at 37° C.) with test samples containing mAb (supernatants from hybridoma clones for example). Wells were washed then incubated as above with peroxidase-labelled anti-mouse immunoglobulin (Jackson Labs). Wells were washed and signals were developed with OPD (o-phenylenediamine dihydrochloride; Sigma). Colour development was stopped by adding 10% H₂SO₄ to all wells, usually within 5 minutes. The absorbance of each well was measured at 492 nm.

[3] = target: T1, human complement protein C7; assay: cell-based or functional assay
[4] = target: T2, rat C7 protein (rat); assay: direct ELISA, rat C7 on the well, antibody titrated
T2 chain: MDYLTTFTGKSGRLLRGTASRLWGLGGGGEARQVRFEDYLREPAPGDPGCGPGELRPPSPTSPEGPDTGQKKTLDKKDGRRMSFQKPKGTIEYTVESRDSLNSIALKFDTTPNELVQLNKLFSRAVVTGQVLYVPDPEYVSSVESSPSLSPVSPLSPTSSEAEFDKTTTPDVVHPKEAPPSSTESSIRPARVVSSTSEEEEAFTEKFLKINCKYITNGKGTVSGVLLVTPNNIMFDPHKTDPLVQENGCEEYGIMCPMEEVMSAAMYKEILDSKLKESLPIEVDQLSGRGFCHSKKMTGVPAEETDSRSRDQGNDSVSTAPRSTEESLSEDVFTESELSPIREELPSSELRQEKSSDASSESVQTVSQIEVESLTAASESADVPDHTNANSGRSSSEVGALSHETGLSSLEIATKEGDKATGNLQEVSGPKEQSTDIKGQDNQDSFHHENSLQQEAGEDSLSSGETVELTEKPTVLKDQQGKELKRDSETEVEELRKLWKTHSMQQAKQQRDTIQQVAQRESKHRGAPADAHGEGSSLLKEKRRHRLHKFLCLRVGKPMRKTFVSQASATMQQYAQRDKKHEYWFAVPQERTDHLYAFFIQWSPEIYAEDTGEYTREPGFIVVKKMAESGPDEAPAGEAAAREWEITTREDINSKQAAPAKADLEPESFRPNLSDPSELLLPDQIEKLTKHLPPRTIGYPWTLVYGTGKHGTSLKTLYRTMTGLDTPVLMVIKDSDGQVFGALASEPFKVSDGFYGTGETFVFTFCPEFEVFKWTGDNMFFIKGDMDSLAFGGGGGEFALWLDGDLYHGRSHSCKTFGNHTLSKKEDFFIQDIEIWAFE

[5] = target: T1, human complement protein C7; assay: sandwich ELISA, 2H2 coated as capture, human C7 titrated, goat anti-C7 as detection
[6] = target: T1, human complement protein C7; assay: sandwich ELISA, 2H2 coated as capture, human C7 titrated, polyclonal anti-C7 as detection
[7] = target: T2, rat C7 protein; assay: cell-based or functional assay
[8] = target: mouse C7 protein (mouse, UniProt D3YXF5 23-845); assay: cell-based or functional assay
mouse C7 protein, sequence (D3YXF5 23-845 limits assumed): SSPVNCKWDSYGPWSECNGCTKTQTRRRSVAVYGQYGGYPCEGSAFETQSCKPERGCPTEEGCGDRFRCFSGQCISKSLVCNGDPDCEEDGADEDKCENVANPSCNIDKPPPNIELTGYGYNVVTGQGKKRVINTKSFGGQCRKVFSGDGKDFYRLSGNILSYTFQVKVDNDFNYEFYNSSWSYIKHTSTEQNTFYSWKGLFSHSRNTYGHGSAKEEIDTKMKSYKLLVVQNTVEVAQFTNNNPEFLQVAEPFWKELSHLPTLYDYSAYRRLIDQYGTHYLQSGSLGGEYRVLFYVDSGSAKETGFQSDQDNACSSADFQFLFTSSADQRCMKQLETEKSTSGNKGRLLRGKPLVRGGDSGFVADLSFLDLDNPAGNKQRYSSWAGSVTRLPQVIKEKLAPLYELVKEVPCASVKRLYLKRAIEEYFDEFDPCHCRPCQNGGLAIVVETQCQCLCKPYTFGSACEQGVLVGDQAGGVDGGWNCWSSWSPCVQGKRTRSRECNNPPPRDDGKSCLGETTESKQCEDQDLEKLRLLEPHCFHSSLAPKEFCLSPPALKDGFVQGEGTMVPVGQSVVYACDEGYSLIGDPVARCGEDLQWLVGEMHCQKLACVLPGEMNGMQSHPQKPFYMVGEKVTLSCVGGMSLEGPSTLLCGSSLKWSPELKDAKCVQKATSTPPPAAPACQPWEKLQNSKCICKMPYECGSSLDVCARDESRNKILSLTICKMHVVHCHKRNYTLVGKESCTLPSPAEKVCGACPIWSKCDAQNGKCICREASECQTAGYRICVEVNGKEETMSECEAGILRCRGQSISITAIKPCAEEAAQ

[9] = target: T2, rat C7 protein; assay: SPR (Biacore); antibody captured on mouse IgG capture kit (CM5 chip), C7 flowed over
Description: as §1

T1 sequence (P10643 other isoform, or with tags, fused parts or gaps limits assumed): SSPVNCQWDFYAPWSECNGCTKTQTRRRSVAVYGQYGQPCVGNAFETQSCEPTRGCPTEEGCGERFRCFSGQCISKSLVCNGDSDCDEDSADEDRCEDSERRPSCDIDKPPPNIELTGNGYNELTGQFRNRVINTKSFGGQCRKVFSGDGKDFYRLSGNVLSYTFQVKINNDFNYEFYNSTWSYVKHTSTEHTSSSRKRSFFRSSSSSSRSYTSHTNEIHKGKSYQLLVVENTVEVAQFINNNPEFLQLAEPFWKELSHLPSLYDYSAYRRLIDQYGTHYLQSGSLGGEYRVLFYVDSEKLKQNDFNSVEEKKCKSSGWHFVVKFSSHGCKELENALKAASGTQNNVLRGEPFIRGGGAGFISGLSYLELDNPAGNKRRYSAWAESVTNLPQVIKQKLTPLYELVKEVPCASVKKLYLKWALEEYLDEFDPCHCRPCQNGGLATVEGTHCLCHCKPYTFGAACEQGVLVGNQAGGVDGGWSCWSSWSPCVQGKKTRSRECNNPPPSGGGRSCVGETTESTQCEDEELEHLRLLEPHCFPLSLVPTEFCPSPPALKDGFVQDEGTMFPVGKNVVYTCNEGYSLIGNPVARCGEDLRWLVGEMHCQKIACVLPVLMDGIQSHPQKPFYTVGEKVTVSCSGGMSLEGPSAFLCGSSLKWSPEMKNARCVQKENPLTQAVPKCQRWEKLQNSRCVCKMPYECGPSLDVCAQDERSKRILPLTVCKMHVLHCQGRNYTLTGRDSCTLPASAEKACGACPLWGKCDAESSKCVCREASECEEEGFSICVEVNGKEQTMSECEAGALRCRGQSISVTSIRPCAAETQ

Row | Binder | Kd [1] [nM] | koff [1] [s⁻¹] | kon [1] [M⁻¹ s⁻¹] | EC50 (read off the curve) [2] [µg/mL] | 50% Inhibitory Dose, classical pathway haemolysis assay [3] [ng/mL] | Haemolytic Units (HU), classical pathway haemolysis assay [3] [HU] | EC50 (read off the curve) [4] [µg/mL] | EC50 (read off the curve) [5] [µg/mL] | EC50 (read off the curve) [6] [µg/mL] | 50% Inhibitory Dose, classical pathway haemolysis assay [7] [ng/mL] | Haemolytic Units (HU), classical pathway haemolysis assay [7] [HU] | 50% Inhibitory Dose, classical pathway haemolysis assay [8] [ng/mL] | Haemolytic Units (HU), classical pathway haemolysis assay [8] [HU] | Kd [9] [nM] | koff [9] [s⁻¹] | kon [9] [M⁻¹ s⁻¹]
1 | monoclonal anti-C7 antibody 17E7 (antibody, IgG2a, V domains shown, also called mAb 17E7; antibody from hybridoma ECACC 19041601) VH: EVQLQQSGTVLARPGASVKMSCKTSGYSFTTYWMHWVKQRPGQGLEWIGAIYPGNSDTYYSQKFKDKAKLTAVTSASTAYMELSSLTNEDSAVYYCTRSGGYDVGGLDYWGQGTTLTVSS VL: DIVMTQSPATLSVTPGDGVSLSCRASQSISDYLHWYQQKSHESPRLLIKFASQSISGIPSRFSGSGSGSDFTLSINSVEPEDVGMYYCQNGHSFPFTFGSGTKLELK | 1.02 | 6.94e-05 | 68300 | ~0.01 | 182 | 55.1 |  |  |  |  |  |  |  |  |  | 
2 | monoclonal anti-C7 antibody 2H2 (antibody, IgG2b, V domains shown, Biotinylated in the pull-down assays; also called mAb 2H2; clone 2H2) VH: QVQLQQPGAELMKPGASVKLSCKASGYIFTSYWMHWVKQRPGRGLEWIGRIDPNSGGTNYNEKFKSKATLTVDKPSSTVYMKISSLTSEDSAVYYCAREHDYDYAMDYWGQGTSVTVSS VL: DIVMTQAAPSVPVTPGESVSISCRSSKSLLHSNGNTYLYWFLQRPGQSPQLLIYRMSNLASGVPDRFSGSGSGTAFTLRISRVEAEDVGVYYCMQHLEYPFTFGSGTKLEIK |  |  |  |  | 9980 | 1 | ~3 | ~0.6 | ~0.6 | 33.9 | 265 | 3720 | 2.7 |  |  | 
3 | monoclonal anti-C7 antibody 73D1 (antibody, IgG2a, V domains shown, also called mAb 73D1; antibody from hybridoma ECACC 19080601) VH: EVQLQQSGPELVKPGASVKMSCKASGYTFTDYNMHWVKQSHGKSLEWIGYINPNNGGPSYNQNFKGKATLTVNKSSSTAYMELRSLTSEDSAVYYCACGNYPDYWGQGTTLTVSS VL: DIQMTQSPASLSASVGETVTITCRASGNIHNYLAWYQQKQGKSPQLLVYNAKTLADGVPSRFSGSGSGTQYSLKINSLQPEDFGSYYCQHFWSTPLTFGAGTKLELK | 55.5 | 0.0015 | 26300 |  | 582 | 17.2 |  |  |  | 506 | 19.8 | 720 | 13.9 | 81.7 | 0.00057 | 6980
